# Measured values as given in patent US20250042994A1.
# B1: F3.23.10 (antibody, human IgG1, V domains shown)
# VH: EFQLQQSGPELVKPGASVKISCKASDYSFTDYNMNWVKQSNGASLEWIGIINPNFGSTSYNQKFKGKATLTVDQSSSTAFMQLNSLTSEDSAVYYCARSEYYGSSGFAYWGQGTLVTVSA
# VL: DVVVTQTPLSLPVSFGDQVSISCRSSQSLVNSYGNTYLSWYLHKPGQSPQLLIYGISNRFSGVPDRFSGSGSGTDFTLKITTIKPEDLGMYYCLQGTHQPWTFGGGTKLEIK
# B2: F4.180.1 (antibody, human IgG1, V domains shown)
# VH: EVQLQQSAPELVKPGASVKMSCKTSGYTFTENIIHWVKQTHGKSLEWIGGINPDNGGTSYHQKFKGRTTLTIDKSSSTAYMELRSLTSDDSAVFFCARQAPLYWYFDIWGAGTTVTVSS
# VL: DIVLTQSPASLAVSLGQRATISCRASESVDSYGNSLMHWFQQKPGQPPRLLIYRASNLESGIPARFSGSGSRTDFTLTITPVEADDVATYYCQQSNEDPWTFGGGTKLEIK
# Biological target: cynomolgus monkey CD19 on peripheral blood B cells (cynomolgus monkey (Macaca fascicularis))
# Assay: FACS, cynomolgus PBMC, CD20+ B cells
Binder,Proportion of chimeric antibody positive cells to B cells (%) at 1 nM [%],Proportion of chimeric antibody positive cells to B cells (%) at 10 nM [%],Proportion of chimeric antibody positive cells to B cells (%) at 100 nM [%]
B1,2,1,12
B2,2,3,9
